Source: US20140120095A1 (Boehringer Ingelheim, published 2014)

T1: cynomolgus DLL4 overexpressed on cells (cynomolgus, UniProt Q9NR61 27-685 (human entry))
T1 construct: also called cyno DII4; cDLL4
T1 chain: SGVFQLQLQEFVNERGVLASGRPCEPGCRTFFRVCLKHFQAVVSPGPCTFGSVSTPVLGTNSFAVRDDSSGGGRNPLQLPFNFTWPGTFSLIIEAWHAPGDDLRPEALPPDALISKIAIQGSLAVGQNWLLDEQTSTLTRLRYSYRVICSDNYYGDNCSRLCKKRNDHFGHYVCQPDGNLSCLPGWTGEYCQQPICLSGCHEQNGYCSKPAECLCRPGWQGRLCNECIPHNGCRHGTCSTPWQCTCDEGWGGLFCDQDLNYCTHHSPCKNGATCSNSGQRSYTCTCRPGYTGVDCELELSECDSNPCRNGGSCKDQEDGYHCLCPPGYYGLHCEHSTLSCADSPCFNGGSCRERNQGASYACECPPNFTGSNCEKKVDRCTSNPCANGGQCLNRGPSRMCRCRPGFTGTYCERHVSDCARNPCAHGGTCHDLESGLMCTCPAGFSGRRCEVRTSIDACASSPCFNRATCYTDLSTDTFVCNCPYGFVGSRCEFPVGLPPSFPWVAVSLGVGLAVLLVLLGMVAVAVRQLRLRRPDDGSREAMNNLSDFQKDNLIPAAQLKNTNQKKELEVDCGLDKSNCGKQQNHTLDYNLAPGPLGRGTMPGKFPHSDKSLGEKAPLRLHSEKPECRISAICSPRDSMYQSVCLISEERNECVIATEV

B1: VEGFDLLBII014 (bispecific antibody)
chain: EVQLVESGGGLVQTGDSLRLSCEVSGRTFSSYSMGWFRQAQGKEREFVVAISKGGYKYDSVSLEGRFTISKDNAKNTVYLQINSLKPEDTAVYYCASSRAYGSSRLRLADTYEYWGQGTQVTVSSGGGGSGGGSEVQLVESGGGLVQPGGSLRLSCVASGIRFMSMAWYRQAPGKHRELVARISSGGTTAYVDSVKGRFTISRDNSKNTVYLQMNSLKAEDTAVYYCNTFSSRPNPWGAGTQVTVSSGGGGSGGGGSGGGGCGGGGSGGGGSGGGGSGGGGSEVQLVESGGGLVQAGGSLRLSCAASGRTFSSYAMAWYRQAPGKEREYVAAIRWSGGTAYYADSVQGRFTISRDNAKNTVYLQMNSLKPEDTAVYYCANRAPDTRLAPYEYDHWGQGTQVTVSS
modifications: PEGylated 35gs, cys15 linker (PEG on the Cys at position 15 of the 35 Gly-Ser linker; size of the PEG not stated)
B2: VEGFDLLBII015 (bispecific antibody)
chain: EVQLVESGGGLVQTGDSLRLSCEVSGRTFSSYSMGWFRQAQGKEREFVVAISKGGYKYDSVSLEGRFTISKDNAKNTVYLQINSLKPEDTAVYYCASSRAYGSSRLRLADTYEYWGQGTQVTVSSGGGGSGGGGSGGGGCGGGGSGGGGSGGGGSGGGGSEVQLVESGGGLVQPGGSLRLSCVASGIRFMSMAWYRQAPGKHRELVARISSGGTTAYVDSVKGRFTISRDNSKNTVYLQMNSLKAEDTAVYYCNTFSSRPNPWGAGTQVTVSSGGGGSGGGGSGGGGSGGGGSGGGGSGGGGSGGGGSEVQLVESGGGLVQAGGSLRLSCAASGRTFSSYAMAWYRQAPGKEREYVAAIRWSGGTAYYADSVQGRFTISRDNAKNTVYLQMNSLKPEDTAVYYCANRAPDTRLAPYEYDHWGQGTQVTVSS
modifications: PEGylated 35gs, cys15 linker (PEG on the Cys at position 15 of the 35 Gly-Ser linker; size of the PEG not stated)
B3: DLLBII96C03 (VHH)
VHH: EVQLVESGGGLVQPGGSLRLSCAASGFTFGNYDMSWVRQAPGKGPEWVSAINSGGGDTYYADSVKGRFTISRDNAKNTLYLQMNSLKPEDTAVYYCATPRGWGPTGPHEYGYWGQGTQVTVSS
notes: also called 96C3
B4: VEGFDLLBII013 (bispecific antibody)
chain: EVQLVESGGGLVQTGDSLRLSCEVSGRTFSSYSMGWFRQAQGKEREFVVAISKGGYKYDSVSLEGRFTISKDNAKNTVYLQINSLKPEDTAVYYCASSRAYGSSRLRLADTYEYWGQGTQVTVSSGGGGSGGGGSGGGGCGGGGSGGGGSGGGGSGGGGSEVQLVESGGGLVQAGGSLRLSCAASGRTFSSYAMAWYRQAPGKEREYVAAIRWSGGTAYYADSVQGRFTISRDNAKNTVYLQMNSLKPEDTAVYYCANRAPDTRLAPYEYDHWGQGTQVTVSS
modifications: PEGylated 35gs, cys15 linker (PEG on the Cys at position 15 of the 35 Gly-Ser linker; size of the PEG not stated)
B5: DLLBII62C11 (VHH)
VHH: EVQLMESGGGLVQPGGSLRLSCVAAGFTFSNYYMSWVRQAPGKGLEWVSVISPDGSNTYYADTVKGRFTISRGNAKNTLFLQMTGLKSEDAAVYYCARGSGSWGVHGQGTQVTVSS

What was measured:
VEGF = VEGF (UniProt P15692-4 27-191, limits assumed); experiment: cell-based or functional assay
[1] = molecular target: DII4-His (C-terminal His-tagged human DII4, amino acid 27-524) (human, UniProt Q9NR61 25-522); experiment: cell-based or functional assay
recombinant mouse DLL4 = molecular target: T2, recombinant mouse DLL4 (mouse, UniProt Q9JI71 27-532); experiment: binding ELISA, coated rmDLL4
T2 construct: extracellular domain; also called rmDLL4; mDLL4
Method: (§1) In order to determine cross-reactivity to mouse DII4 a binding ELISA is performed. […] Wells are blocked with a casein solution (1% in PBS). VHHs are applied as dilution series and binding is detected using a mouse anti-myc (Roche) and an anti-mouse-AP conjugate (Sigma, St Louis, Mo., USA) (FIG. 7 A-H). As reference, binding to human DII4 is measured.

[2] = molecular target: T3, mouse DLL4 overexpressed on cells (mouse, UniProt Q9JI71 27-686); experiment: FMAT, labelled hNotch1-Fc on CHO-mDLL4, periplasmic extract
T3 construct: whole, on cells; also called CHO-mDLL4; CHO-mDII4
Source text: (§2) All calculations are based on the FL1_total signal which comprises the average of the fluorescence per well times the number of counts per well.

recombinant human DLL4 [3] = molecular target: T4, recombinant human DLL4 (human, UniProt Q9NR61 25-522); experiment: binding ELISA, coated rhDLL4
T4 construct: also called rhDLL4; hDLL4
Method: as §1

[4] = molecular target: T3, mouse DLL4 overexpressed on cells; experiment: FACS titration on HEK293-mDLL4 cells, MCF
Method: (§3) In order to determine the cynomologus cross-reactivity of the VHHs, a FACS binding experiment is performed. Cynomolgus DII4 expressing HEK293 cells (transient or stable transfection) are used for a titration binding experiment of the VHHs. After a 30 minutes incubation on ice, all samples are washed and detection is performed by applying anti-c-myc˜Alexa647 (Santa Cruz Biotechnology, Santa Cruz, Calif., USA). Human and mouse DII4 overexpressing HEK293 cells are taken as reference. The mean MCF value is determined on the FACS Array and used for calculation of the EC₅₀ value (see FIG. 9 A-E).

[5] = molecular target: T1, cynomolgus DLL4 overexpressed on cells; experiment: FACS titration on HEK293-cDLL4 cells, MCF
Method: as §3

[6] = molecular target: T5, human DLL4 overexpressed on cells (human, UniProt Q9NR61 27-685); experiment: cell-based or functional assay
[7] = molecular target: T5, human DLL4 overexpressed on cells; experiment: competitive FMAT, hNotch1-Fc on CHO-hDLL4
[8] = molecular target: T3, mouse DLL4 overexpressed on cells; experiment: competitive FMAT, hNotch1-Fc on CHO-mDLL4
[9] = molecular target: T5, human DLL4 overexpressed on cells; experiment: FMAT, labelled hNotch1-Fc on CHO-hDLL4, periplasmic extract
Source text: as §2

recombinant human DLL4 [10] = molecular target: T4, recombinant human DLL4; experiment: SPR Biacore T100, hDLL4 on chip, VHH/Fab injected
Method: Kinetic analysis to determine the affinity of the DII4-VHH interaction is performed by Surface Plasmon Resonance (SPR) on a Biacore T100 instrument. […] Purified VHHs or Fab fragment are injected for 2 minutes at different concentrations (between 10 and 300 nM) and allowed to dissociate for 20 min at a flow rate of 45 μl/min. Between sample injections, the surfaces are regenerated with 10 mM glycine pH1.5 and 100 mM HCl. HBS-N (Hepes buffer pH7.4) is used as running buffer. If possible, data are evaluated by fitting a 1:1 interaction model (Langmuir binding) onto the binding curves. The affinity constant KD is calculated from resulting association and dissociation rate constants (kₐ) and […].

recombinant human DLL4 [11] = molecular target: T4, recombinant human DLL4; experiment: competition ELISA, biot-hDLL4 to coated hNotch1-Fc
Source text: Residual binding of biotinylated human DII4 is detected using horseradish peroxidase (HRP) conjugated extravidin (Sigma, St. Louis, Mo., USA) (FIG. 3 A-C). Human DII4 is biotinylated as described above.

human Jagged-1 = molecular target: T6, human Jagged-1 (human, UniProt P78504 34-1067, limits assumed); experiment: binding ELISA on coated recombinant human Jagged-1, OD 405 nm
T6 construct: also called hJagged-1; hJAG1
Summary of the method: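 Plates coated overnight at 4° C with 1 μg/mL ligand, blocked with 1% casein in PBS. VHH dilution series applied; bound VHH detected via mouse anti-myc then anti-mouse-AP conjugate.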

recombinant human DLL4 [12] = molecular target: T4, recombinant human DLL4; experiment: competition AlphaScreen, biot-hDLL4/hNotch1-Fc
Method: In brief, 1 nM biotinylated human DII4 is captured on streptavidin-coated donor beads (20 μg/mL), while 0.4 nM of the receptor human Notch1 (as a Fc fusion protein) is captured on anti-human Fc VHH-coated acceptor beads (20 μg/mL). Both loaded beads are incubated together with a dilution range of the competing VHH (FIG. 4 A-E).

T3 sequence (Q9JI71 27-686): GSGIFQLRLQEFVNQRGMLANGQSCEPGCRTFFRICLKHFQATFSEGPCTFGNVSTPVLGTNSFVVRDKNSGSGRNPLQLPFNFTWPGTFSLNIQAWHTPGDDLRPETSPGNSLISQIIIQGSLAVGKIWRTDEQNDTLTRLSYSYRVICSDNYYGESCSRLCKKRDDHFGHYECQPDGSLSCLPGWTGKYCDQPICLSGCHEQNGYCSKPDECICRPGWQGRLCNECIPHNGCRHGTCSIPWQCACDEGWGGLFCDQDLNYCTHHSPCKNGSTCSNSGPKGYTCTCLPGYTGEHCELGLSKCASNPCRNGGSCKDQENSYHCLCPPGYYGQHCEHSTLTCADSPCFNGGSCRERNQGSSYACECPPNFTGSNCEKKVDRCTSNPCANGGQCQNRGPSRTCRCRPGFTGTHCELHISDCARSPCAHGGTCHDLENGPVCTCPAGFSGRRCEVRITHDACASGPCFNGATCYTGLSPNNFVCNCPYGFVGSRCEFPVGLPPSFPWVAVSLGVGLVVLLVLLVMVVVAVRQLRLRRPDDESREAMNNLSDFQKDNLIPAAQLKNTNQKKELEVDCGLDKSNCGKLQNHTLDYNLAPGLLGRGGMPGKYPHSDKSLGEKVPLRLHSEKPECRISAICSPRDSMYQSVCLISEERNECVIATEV
Sequence of VEGF (P15692 other isoform, or with tags, fused parts or gaps limits assumed): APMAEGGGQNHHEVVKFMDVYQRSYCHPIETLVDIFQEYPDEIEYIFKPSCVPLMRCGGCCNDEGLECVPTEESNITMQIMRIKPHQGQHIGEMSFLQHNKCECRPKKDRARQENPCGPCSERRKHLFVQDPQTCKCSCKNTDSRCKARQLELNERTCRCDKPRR
T2 sequence (Q9JI71 27-532): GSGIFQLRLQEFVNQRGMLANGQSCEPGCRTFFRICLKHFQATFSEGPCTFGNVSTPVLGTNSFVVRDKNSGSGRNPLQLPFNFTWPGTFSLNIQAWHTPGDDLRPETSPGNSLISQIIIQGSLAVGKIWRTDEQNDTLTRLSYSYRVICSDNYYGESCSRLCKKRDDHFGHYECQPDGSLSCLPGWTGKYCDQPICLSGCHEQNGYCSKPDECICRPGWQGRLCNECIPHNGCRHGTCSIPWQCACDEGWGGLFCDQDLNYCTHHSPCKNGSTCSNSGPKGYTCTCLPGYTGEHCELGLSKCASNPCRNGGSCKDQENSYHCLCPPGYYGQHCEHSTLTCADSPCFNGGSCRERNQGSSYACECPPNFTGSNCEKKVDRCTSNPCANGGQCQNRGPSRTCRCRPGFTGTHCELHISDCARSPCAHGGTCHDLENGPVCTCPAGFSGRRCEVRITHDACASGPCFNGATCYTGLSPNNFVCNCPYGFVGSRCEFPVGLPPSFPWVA

Row | Binder | % inhibition, VEGF HUVEC Erk phosphorylation assay, -HSA (VEGF) | IC50 (nM), VEGF HUVEC Erk phosphorylation assay, -HSA (VEGF) | IC50 (nM), DII4-mediated HUVEC proliferation assay, -HSA [1] | EC50 (recombinant mouse DLL4) | % inh [2] | EC50 (recombinant human DLL4 [3]) | EC50 (read off the curve) [4] | binding result [5] | IC50, DLL4/Notch1 reporter assay [6] | IC50 [7] | IC50 [8] | % inh [9] | Kd (recombinant human DLL4 [10]) | koff (recombinant human DLL4 [10]) | kon (recombinant human DLL4 [10]) | IC50 (recombinant human DLL4 [11]) | binding result (human Jagged-1) | IC50 (recombinant human DLL4 [12])
1 | B1 | 101% | 0.53 nM | 0.53 nM | – | – | – | – | – | – | – | – | – | – | – | – | – | – | –
2 | B2 | 106% | 0.4 nM | 0.28 nM | – | – | – | – | – | – | – | – | – | – | – | – | – | – | –
3 | B3 | – | – | – | 8.7 nM | 83% | 86.5 nM | ~20 nM | no binding (tested: 1000 nM) | 5160 nM | 161 nM | 28.8 nM | 75% | 310 nM | 0.048 s⁻¹ | 160000 M⁻¹ s⁻¹ | 38.4 nM | no binding (tested: 5e-7 M) | –
4 | B4 | 95% | 0.89 nM | 2.06 nM | – | – | – | – | – | – | – | – | – | – | – | – | – | – | –
5 | B5 | – | – | – | 13.1 nM | 71% | 137 nM | ~20 nM | no binding (tested: 1000 nM) | 4660 nM | 172 nM | 106 nM | 74% | 120 nM | 0.13 s⁻¹ | 1.2e+06 M⁻¹ s⁻¹ | 72 nM | no binding (tested: 5e-7 M) | 24.1 nM
